Measurements taken from patent publication US20100034826A1 (Bristol-Myers Squibb, published 2010).
Positions count from the first letter of the chain named.

Assays:
[1] = molecular target: T1, human PTK7, full length, on the cell surface (human, UniProt Q13308 31-1070); assay: cell-based or functional assay
T1 sequence: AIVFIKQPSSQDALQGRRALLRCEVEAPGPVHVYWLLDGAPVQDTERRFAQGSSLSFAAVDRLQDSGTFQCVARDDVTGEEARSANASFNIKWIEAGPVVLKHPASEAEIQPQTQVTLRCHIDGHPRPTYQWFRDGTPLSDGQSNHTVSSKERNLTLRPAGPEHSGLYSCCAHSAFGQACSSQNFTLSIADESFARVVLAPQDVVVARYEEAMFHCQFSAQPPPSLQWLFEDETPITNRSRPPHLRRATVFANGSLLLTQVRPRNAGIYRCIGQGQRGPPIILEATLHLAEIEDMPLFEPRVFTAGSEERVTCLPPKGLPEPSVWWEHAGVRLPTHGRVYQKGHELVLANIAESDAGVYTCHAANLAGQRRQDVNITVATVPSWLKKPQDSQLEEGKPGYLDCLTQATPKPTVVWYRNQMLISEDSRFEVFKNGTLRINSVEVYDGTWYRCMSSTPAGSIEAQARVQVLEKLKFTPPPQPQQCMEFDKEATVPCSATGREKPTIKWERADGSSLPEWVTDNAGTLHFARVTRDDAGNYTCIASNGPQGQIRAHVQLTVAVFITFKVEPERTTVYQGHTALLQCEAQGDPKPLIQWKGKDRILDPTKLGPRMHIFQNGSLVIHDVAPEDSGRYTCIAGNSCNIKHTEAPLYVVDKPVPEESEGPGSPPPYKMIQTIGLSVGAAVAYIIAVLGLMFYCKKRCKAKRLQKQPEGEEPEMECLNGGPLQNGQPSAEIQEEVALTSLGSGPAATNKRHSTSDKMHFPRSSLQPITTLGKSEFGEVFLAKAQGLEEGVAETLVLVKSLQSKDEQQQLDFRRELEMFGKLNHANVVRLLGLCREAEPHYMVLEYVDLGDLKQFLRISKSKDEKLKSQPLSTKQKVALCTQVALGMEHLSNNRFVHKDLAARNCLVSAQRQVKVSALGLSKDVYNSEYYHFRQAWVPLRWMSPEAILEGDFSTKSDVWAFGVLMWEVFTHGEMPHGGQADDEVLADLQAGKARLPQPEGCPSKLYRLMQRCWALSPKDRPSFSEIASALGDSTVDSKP

[2] = molecular target: T2, recombinant extracellular domain of PTK7 (human, UniProt Q13308 31-704); assay: ELISA on recombinant extracellular domain of PTK7, antibody from 10 µg/ml in 1:2 dilutions
T2 construct: also called PTK7 extracellular domain
T2 sequence: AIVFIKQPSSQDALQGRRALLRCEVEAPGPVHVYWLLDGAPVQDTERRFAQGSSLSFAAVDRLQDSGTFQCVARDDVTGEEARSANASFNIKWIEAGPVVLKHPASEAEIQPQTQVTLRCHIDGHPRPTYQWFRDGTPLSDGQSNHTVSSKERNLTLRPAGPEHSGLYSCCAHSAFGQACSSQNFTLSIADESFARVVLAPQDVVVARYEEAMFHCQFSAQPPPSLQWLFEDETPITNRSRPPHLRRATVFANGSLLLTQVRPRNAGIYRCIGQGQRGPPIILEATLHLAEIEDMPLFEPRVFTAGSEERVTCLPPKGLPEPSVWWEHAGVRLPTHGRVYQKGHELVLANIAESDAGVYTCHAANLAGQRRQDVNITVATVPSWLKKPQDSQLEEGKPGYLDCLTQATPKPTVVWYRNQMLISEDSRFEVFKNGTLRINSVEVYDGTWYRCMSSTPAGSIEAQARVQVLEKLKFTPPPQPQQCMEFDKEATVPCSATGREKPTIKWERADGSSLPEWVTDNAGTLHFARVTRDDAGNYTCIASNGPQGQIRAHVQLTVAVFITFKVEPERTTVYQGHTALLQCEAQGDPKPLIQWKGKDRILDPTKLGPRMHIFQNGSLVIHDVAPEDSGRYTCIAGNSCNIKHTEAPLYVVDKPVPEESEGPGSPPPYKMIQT
Procedure: (§1) Recombinant extracellular domain of PTK7 was tested for binding against the anti-PTK7 human monoclonal antibodies 3G8, 4D5, 12C6 and 12C6a at different concentrations. Standard ELISA procedures were performed. The anti-PTK7 human monoclonal antibodies were added at a starting concentration of 10 μg/ml and serially diluted at a 1:2 dilution. Goat-anti-human IgG (kappa chain-specific) polyclonal antibody conjugated with horseradish peroxidase (HRP) was used as secondary antibody. Each of the anti-PTK7 human monoclonal antibodies 3G8, 4D5, 12C6 and 12C6a bound to PTK7.

[3] = molecular target: T1, human PTK7, full length, on the cell …; assay: flow cytometry on cancer cell lines that express cell surface PTK7, antibody at 10 µg/ml, MFI
Procedure: Binding of the 3G8, 12C6a, 4D5 and 12C6 anti-PTK7 human monoclonal antibodies to a panel of cancer cell lines was assessed by incubating cancer cell lines with anti-PTK7 human monoclonal antibodies at a concentration of 10 μg/ml. […] An isotype control antibody was used as a negative control. The cells were washed and binding was detected with a FITC-labeled anti-human IgG Ab. Flow cytometric analyses were performed using a FACScan flow cytometry (Becton Dickinson, San Jose, Calif.).

[4] = molecular target: T1, human PTK7, full length, on the cell …; assay: flow cytometry on Wilms' tumor G-401 cells, antibody from 30 µg/ml in 1:10 dilutions
Procedure: The nephroblastoma Wilms' tumor cell line G-401 (ATCC Acc No. CRL-1441) was tested for binding of the HuMAb anti-PTK7 human monoclonal antibodies 12C6 and 7C8 at different concentrations. Binding of the anti-PTK7 human monoclonal antibodies was assessed by incubating 1×10⁵ cells with antibody at a starting concentration of 30 μg/ml and serially diluting the antibody at a 1:10 dilution. The cells were washed and binding was detected with a PE-labeled anti-human IgG Ab. Flow cytometric analyses were performed using a FACScan flow cytometry (Becton Dickinson, San Jose, Calif.). The anti-PTK7 monoclonal antibodies 12C6 and 7C8 bound to the nephroblastoma Wilms' tumor cell line in a concentration dependent manner, as measured by the mean fluorescent intensity (MFI) of staining.

[5] = molecular target: T2, recombinant extracellular domain of PTK7; assay: ELISA on recombinant PTK7 extracellular domain, HRP anti-human IgG (kappa) detection
Procedure: as §1

B1: anti-PTK7 human monoclonal antibody 3G8 (antibody, V domains shown)
VH: QVQLVESGGGVVQPGRSLRLSCAASGFIFSNYAMHWVRQAPGKGLEWVAVISYDGNNKYYADSVKGRFTISRDNSKNTLYLQMNSLRAEDTAVYYCAREVWSIDNWGQGTLVTVSS
VL: DIQMTQSPSSLSASVGDRVTITCRASQGISSWLAWYQQKPEKAPKSLIYAASSLQSGVPSRFSGSGSGTDFTLTISSLQPEDFATYYCQQYNSYPRTFGQGTKVEIK
Question: How did the “EC50, Hum-Zap internalization assay (3H-thymidine incorporation), Wilms' tumor cells” value (from here on “EC50 … Wilms' tumor cells”) [1] turn out when B1 was run?
Answer: Its value is 0.644 nM.

B2: anti-PTK7 human monoclonal antibody 12C6a (antibody, V domains shown)
VH: EVQLVQSGGGLVHPGGSLRLSCAGSGFTFSTYLMYWVRQAPGKTLEWVSAIGSGGDTYYADSVKGRFTISRDNAKNSLYLQMNSLRAEDMAVYYCARGLGYWGQGTLVTVSS
VL: B1 VL with R96Y, V104L
notes: Human IgG with kappa light chain, made by a hybridoma; Same VH as 12C6
Question: Does B2 bind [2]?
Answer: Result: binds

Question: Does B2 bind [3]?
Answer: Result: binds

B3: anti-PTK7 human monoclonal antibody 12C6 (antibody, V domains shown)
VH: B2 VH
VL: not shown
notes: Human IgG with kappa light chain, made by a hybridoma
Question: For B3, which “EC50, Hum-Zap internalization assay (3H-thymidine incorporation), A-431 cells” value [1] is on record?
Answer: Its value is 166 nM.

Question: What about the “EC50, Hum-Zap internalization assay (3H-thymidine incorporation), PC3 tumor cells” value [1] of the same binder?
Answer: The value was 0.318 nM.

Question: And the “EC50 … Wilms' tumor cells” value [1]?
Answer: Its value is 0.205 nM.

Question: What about the EC50 [4] of the same binder?
Answer: The EC50 was 4.04 nM.

Question: What about the “EC50 (read off the curve)” value [5] of the same binder?
Answer: The value was roughly 0.6 µg/mL.

B4: anti-PTK7 human monoclonal antibody 4D5 (antibody, V domains shown)
VH: QVQLVESGGGVVQPGRSLRLSCAASGFTFSSYAFHWVRQAPGKGLEWVAVISYDGSIKYYADSVKGRFTISRDNSKNTLYLQMNSLRAEDTAVYYCARTYYFDYWGQGTLVTVSS
VL: EIVLTQSPDFQSVTPKEKVTITCRASQSIGSSLHWYQQKPDQSPKLLIKYASQSFSGVPSRFSGSGSGTDFTLTINSLEAEDAAAYYCHQSSSLPITFGQGTRLEIK
Question: With B4 as the binder, how does the “EC50 … Wilms' tumor cells” value [1] read?
Answer: Its value is 0.252 nM.

B5: anti-PTK7 human monoclonal antibody 7C8 (antibody, V domains shown)
VH: QVQLVESGGGVVQPGRSLRLSCAASGFTFSSYGMHWVRQAPGKGLEWVAVIWDDGSNKYYVDSVKGRFTISRDNSKNTLYLQMNSLRAEDTAVYYCARDDYYGSGSFNSYYGTDVWGQGTTVTVSS
VL: EIVLTQSPATLSLSPGERATLSCRASQSVSIYLAWYQQKPGQAPRLLIYDASNRATGIPARFSGSGSGTDFTLTISSLEPEDFAVYYCQQRSNWPPFTFGPGTKVDIK
notes: Human IgG with kappa light chain, made by a hybridoma; also called 7CS
Question: How did the “EC50, Hum-Zap internalization assay (3H-thymidine incorporation), A-431 cells” value [1] turn out when B5 was run?
Answer: Its value is 0.183 nM.

Question: What about the “EC50, Hum-Zap internalization assay (3H-thymidine incorporation), PC3 tumor cells” value [1] of the same binder?
Answer: The value was 0.265 nM.

Question: And the “EC50 … Wilms' tumor cells” value [1]?
Answer: The value was 0.179 nM.

Question: And the EC50 [4]?
Answer: Its EC50 is 3.43 nM.
